# Laboratory results from patent publication US20250289888A1 (GIGAGEN, published 2025).
# Positions count from the first letter of the chain named.
# B1: antibody A5 (antibody, V domains shown)
# VH: QVQLVESGGGVVQPGRSLRLSCAASGFTFSSYGMHWVRQAPGKGLEWVAVIWYDGNNKYYADSVKGRFTISRDNSKNTLYLQMYSLRAEDTAVYYCARGGILAAGIFDYWGQGTLVTVSS
# VL: EIVLTQSPGTLSLSPGDRATLSCRASQSGSSSYLAWYQQKPGQAPRLLIYGASSRATGIPDRFSGSGSGTDFTLTISRLEPEDFAVYYCQQYGTSPFTSGPGTKVDIK
# notes: full-length human IgG1 (CHO); also called aCTLA-4.28; CTLA4.A5
# B2: antibody A2 (antibody, human IgG1, V domains shown)
# VH: QVQLVESGGGVVQPGRSLRLSCAASGFTFSNYGMNWVRQAPGKGLEWVAVIWYDGRNKHYADSVKGRFTISRDNSKNTLYLQMNSLRAEDTAVYYCARGGDWGPYFDYWGQGTLVTVSS
# VL: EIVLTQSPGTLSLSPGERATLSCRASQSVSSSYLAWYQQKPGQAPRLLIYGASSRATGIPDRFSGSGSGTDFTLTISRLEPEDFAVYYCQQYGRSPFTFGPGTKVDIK
# notes: full-length human IgG1 (CHO); also called aCTLA-4.4; CTLA4.A2
# B3: antibody A7 (antibody, human IgG1, V domains shown)
# VH: QVQLVESGGGVVQPGRSLRLSCAASGFTLSSFGMHWVRQAPGKGLEWVAVIWYDGSNKYYADSVKGRFIISRDNSKTALYLQMNSLRAEDTAVYYCARAHYFGAFDIWGQGTMVTVSS
# VL: not shown
# notes: full-length human IgG1 (CHO); also called aCTLA-4.3; CTLA4.A7
# B4: GIGA-564 (antibody, V domains shown)
# VH: QVQLVESGGGVVQPGRSLRLSCAASGFTFSSYGMHWVRQAPGTGLEWVAVIWYEGRNKYYADPVKGRFTISRDNSKNTLYLQMNSLRDDDTAVYYCARAGDLGAFDIWGQGTMVTVSSA
# VL: not shown
# notes: fucosylation differs between lots (77-95 %); also called antibody A14; aCTLA-4.15
# B5: antibody A9 (antibody, human IgG1, V domains shown)
# VH: QVQLVESGGGVVQPGRSLRLSCAASGFTFSSHGMHWVRQAPGKGLEWVAVIWYDGSNKHYADSVKGRFTISRDNSKNTLYLQMNSLRAEDTAVYYCARGDILTGYYGYWGQGTLVTVSS
# VL: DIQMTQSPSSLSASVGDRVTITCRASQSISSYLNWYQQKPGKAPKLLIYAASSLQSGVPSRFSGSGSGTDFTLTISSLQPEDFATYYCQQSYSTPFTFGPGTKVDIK
# notes: full-length human IgG1 (CHO); also called aCTLA-4.24; L9H9
# B6: antibody A4 (antibody, V domains shown)
# VH: QVQLVESGGGVVQPGRSLRISCAASGFTFSSYGIHWVRQAPGKGLQWVAVIWYDGRNKYYADSVKGRFTISRDNSKNTLYLQMNSLRAEDTAVYYCSRSGSFGAFDIWGQGTMVTVSS
# VL: B1 VL
# notes: full-length human IgG1 (CHO); also called aCTLA-4.29; L4H4
# B7: antibody A8 (antibody, human IgG1, V domains shown)
# VH: QVQLVESGGGVVQPGRSLRLSCAASGFTFSRYGMHWVRQAPGKGLEWVAVIWYDGRNKYYADSVKGRFTISRDNSKNTLYLQMNSLRAEDTALYSCARAGELGPFDYWGQGTLVTVSS
# VL: EIVLTQSPGTLSLSPGERATLSCRASQSVSYLAWYQQKPGQAPRLLIYGASSRATGIPDRFSGSGSGTDFTLTISRLEPEDFAVYYCQQYGSSPWTFGQGTKVEIK
# notes: full-length human IgG1 (CHO); also called aCTLA-4.1; CTLA4.A8
# B8: antibody A3 (antibody, human IgG1, V domains shown)
# VH: B2 VH with A23I, N31S, N35H, I51N, R56S, D101V
# VL: not shown
# notes: full-length human IgG1 (CHO); also called aCTLA-4.2; L3H3
# B9: Ipilimumab analog (antibody, human IgG1, V domains shown)
# VH: QVQLVESGGGVVQPGRSLRLSCAASGFTFSSYTMHWVRQAPGKGLEWVTFISYDGNNKYYADSVKGRFTISRDNSKNTLYLQMNSLRAEDTAIYYCARTGWLGPFDYWGQGTLVTVSSA
# VL: not shown
# notes: also called Ipi analog; in-house produced ipilimumab
# B10: antibody A11 (antibody, human IgG1, V domains shown)
# VH: QVQLVESGGGVVQPGRSLRLSCAASGFTFSSYGMHWVRQAPGKGLEWVAVIWYDVGNKYYIDSVKGRFTISRDNSKNTLYLQMNSLRAEDTAVYYCARDYYGSGSPRHFDYWGQGTLVTVSS
# VL: DIQLTQSPSFLSASVGDRVTITCRASQGISSYLAWYQQKPGKAPKLLIYAASTLQSGVPSRFSGSGSGTEFTLTISSLQPEDFATYYCQQLNSYPPTFGQGTKVEIK
# notes: full-length human IgG1 (CHO); also called aCTLA-4.31; L11H11
# B11: antibody A10 (antibody, human IgG1, V domains shown)
# VH: B7 VH with A23V, F29L, R31S, R56S, Y59H, Y80S, L93V, S95Y, A99G, E101Q
# VL: not shown
# notes: full-length human IgG1 (CHO); also called aCTLA-4.22; L10H10
# B12: antibody A1 (antibody, human IgG1, V domains shown)
# VH: QVQLVESGGGVVQPGRSLRLSCAASGFTFSSFGMHWVRQAPGKGLEWVAVIWYDGRNKYYVDSVKGRFTISRDNSNNTLYLQMNSLRAEDTAVYYCARGEFFGEFFDYWGQGTLVTVSS
# VL: B1 VL with D17E, R18G, G29F, S32N, S99F
# B13: antibody A13 (antibody, human IgG1, V domains shown)
# VH: B2 VH with N31S, N35H, H59D, F68I, D101L, W102L
# VL: not shown
# B14: antibody A6 (antibody, human IgG1, V domains shown)
# VH: QVQLVESGGGVVQPGRSLRLSCAASGFTFSSYGMHWVRQAPGKGLEWVAVIWYDGSYKYYADSVKGRFTISRDDSKNTLYLQMSSLRAEDTAVYYCARAPHYAILTGYYEDYWGQGTLVTVSS
# VL: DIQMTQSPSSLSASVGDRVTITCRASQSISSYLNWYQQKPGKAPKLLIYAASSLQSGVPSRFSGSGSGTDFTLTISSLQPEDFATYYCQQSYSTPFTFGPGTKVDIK
# Target: T1, recombinant human CTLA-4-Fc (human, UniProt P16410 36-162)
# T1 construct: bought Fc chimera; also called rhCTLA-4-Fc; rhCTLA-4-Fc chimera; Fc part of the bought chimera not given
# T1 sequence (P16410 36-162): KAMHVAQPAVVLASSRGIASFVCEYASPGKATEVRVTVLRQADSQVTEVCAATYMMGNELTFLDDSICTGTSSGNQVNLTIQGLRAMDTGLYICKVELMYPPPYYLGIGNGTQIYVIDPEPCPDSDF
# Test: blocking ELISA: plate-bound rhCTLA-4-Fc, mAb titrated, rhCD80-His binding detected
# Protocol: (§1) Plates were coated with rhCTLA-4-Fc and then blocked with 1×PBST with 5% w/v nonfat dry milk. After blocking a dilution series of the indicated antibody was added to the plate.
row,Binder,CD80% inhibition [%]
1,B1,96.3
2,B2,95.4
3,B3,92.1

# Target: T1, recombinant human CTLA-4-Fc
# Test: blocking ELISA: plate-bound rhCTLA-4-Fc, mAb titrated, rhCD86-His binding detected
# Protocol: as §1
row,Binder,CD86% inhibition [%]
1,B4,54.5
2,B1,90.6
3,B2,91.5
4,B3,78.8

# Target: T2, mouse CTLA-4 (mouse, UniProt P09793 36-162, limits assumed)
# T2 construct: antigen of the anti-mouse CTLA-4 BLI measurements; also called murine CTLA-4
# Test: BLI (Octet), captured mAb, soluble mouse CTLA-4
# Protocol: The binding specificity and affinity of each full-length antibody towards CTLA-4 were determined using biolayer interferometry (BLI) and/or surface plasmon resonance (SPR). Anti-cyno CTLA-4 and anti-mouse CTLA-4 affinities were tested using ForteBio (BLI). Anti-human CTLA-4 affinities were measured using Carterra (SPR).
# For BLI, antibodies were loaded onto an Anti-Human IgG Fc (AHC) biosensor using the Octet Red96 system (ForteBio). Loaded biosensors were dipped into antigen dilutions beginning at 300 nM, with 6 serial dilutions at 1:3. Kinetic analysis was performed using a 1:1 binding model and global fitting.
row,Binder,binding result
1,B5,no binding (tested: antigen dilutions beginning at 300 nM)
2,B6,no binding (tested: antigen dilutions beginning at 300 nM)
3,B7,no binding (tested: antigen dilutions beginning at 300 nM)
4,B2,no binding (tested: antigen dilutions beginning at 300 nM)
5,B8,no binding (tested: antigen dilutions beginning at 300 nM)
6,B9,no binding (tested: antigen dilutions beginning at 300 nM)
7,B10,no binding (tested: antigen dilutions beginning at 300 nM)
8,B3,no binding (tested: antigen dilutions beginning at 300 nM)
9,B11,no binding (tested: antigen dilutions beginning at 300 nM)

# Target: human CTLA-4 expressed on cells (human, UniProt P16410 36-223)
# Sequence (P16410 36-223 limits assumed): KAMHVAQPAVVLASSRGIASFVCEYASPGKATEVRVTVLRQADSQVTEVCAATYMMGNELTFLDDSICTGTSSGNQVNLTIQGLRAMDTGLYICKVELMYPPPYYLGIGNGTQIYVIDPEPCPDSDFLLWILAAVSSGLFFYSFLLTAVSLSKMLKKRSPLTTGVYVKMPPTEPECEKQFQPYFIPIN
# Test: cell-based or functional assay
row,Binder,Promega assay antagonist (EC50. ug/mL) [µg/mL]
1,B5,0.19
2,B1,0.18
3,B12,0.13
4,B6,0.15
5,B7,0.15
6,B2,0.12
7,B13,0.09
8,B8,0.18
9,B10,0.42
10,B14,0.18
11,B3,0.17
12,B11,0.26
